Blank lines part the entries; values can stand above or below the binder they belong to.
Columns and labels:
[1] = target: T1, monkey PTK7 protein (extracellular sequence of monkey PTK7 with C-terminal 6×His tag) (monkey); test: ELISA, coated monkey PTK7 protein 1 µg/ml
T1 chain: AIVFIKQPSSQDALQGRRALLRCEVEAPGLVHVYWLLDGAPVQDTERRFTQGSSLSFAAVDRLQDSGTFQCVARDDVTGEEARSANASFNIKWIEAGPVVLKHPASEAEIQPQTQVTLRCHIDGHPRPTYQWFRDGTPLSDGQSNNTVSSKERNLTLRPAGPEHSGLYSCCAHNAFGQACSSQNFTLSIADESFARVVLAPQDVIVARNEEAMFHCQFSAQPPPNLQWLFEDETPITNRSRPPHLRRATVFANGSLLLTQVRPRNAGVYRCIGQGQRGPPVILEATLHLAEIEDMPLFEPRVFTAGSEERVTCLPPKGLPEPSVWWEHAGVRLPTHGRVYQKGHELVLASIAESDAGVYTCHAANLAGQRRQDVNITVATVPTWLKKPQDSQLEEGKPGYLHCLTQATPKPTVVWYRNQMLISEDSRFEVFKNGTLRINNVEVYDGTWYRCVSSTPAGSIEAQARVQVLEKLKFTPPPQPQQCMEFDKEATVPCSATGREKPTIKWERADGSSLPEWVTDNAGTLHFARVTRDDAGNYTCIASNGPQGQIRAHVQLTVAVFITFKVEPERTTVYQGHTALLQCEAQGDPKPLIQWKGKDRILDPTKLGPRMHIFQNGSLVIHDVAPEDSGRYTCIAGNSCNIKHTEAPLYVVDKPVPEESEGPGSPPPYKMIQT
Protocol: (§1) Original data was imported into software for nonlinear curve fitting, and EC₅₀ of binding of each antibody to human PTK7 and monkey PTK7 was calculated, respectively. As shown in Table 1 and FIGS. 1A-1B, the screened antibodies could be bound to the human and monkey PTK7 proteins with affinity higher than that of the control antibody Hu24.

[2] = target: T2, mouse PTK7 protein (extracellular sequence of mouse PTK7 with C-terminal 6×His tag) (mouse, UniProt Q8BKG3 23-696); test: ELISA, coated mouse PTK7 protein
T2 construct: extracellular domain; Expressed transiently in HEK293 cells
T2 sequence: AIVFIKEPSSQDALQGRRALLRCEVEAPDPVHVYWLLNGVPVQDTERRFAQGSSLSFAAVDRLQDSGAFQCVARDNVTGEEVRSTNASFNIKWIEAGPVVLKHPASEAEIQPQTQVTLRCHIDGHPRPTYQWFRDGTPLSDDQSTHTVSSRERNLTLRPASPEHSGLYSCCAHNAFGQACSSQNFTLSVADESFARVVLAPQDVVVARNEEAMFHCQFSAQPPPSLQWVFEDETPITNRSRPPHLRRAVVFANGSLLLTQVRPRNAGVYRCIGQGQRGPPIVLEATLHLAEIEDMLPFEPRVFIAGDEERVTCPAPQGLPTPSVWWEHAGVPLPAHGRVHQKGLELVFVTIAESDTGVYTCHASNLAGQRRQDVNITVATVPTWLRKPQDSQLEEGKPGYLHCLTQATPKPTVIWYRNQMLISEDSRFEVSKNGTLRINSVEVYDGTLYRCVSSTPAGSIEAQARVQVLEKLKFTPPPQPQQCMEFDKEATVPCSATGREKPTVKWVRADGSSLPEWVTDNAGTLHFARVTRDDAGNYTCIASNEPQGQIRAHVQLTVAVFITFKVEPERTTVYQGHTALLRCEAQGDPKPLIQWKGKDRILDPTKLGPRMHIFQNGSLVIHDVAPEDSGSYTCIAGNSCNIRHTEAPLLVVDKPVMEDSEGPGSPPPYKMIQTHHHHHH
Protocol: as §1
ELISA and ForteBio were adopted to detect binding of the anti-human PTK7 chimeric and humanized antibodies to the monkey, mouse and rat PTK7 proteins.

- EC50 [1]: 0.0133 mg/L
B1: Hu24 (PTK7 control antibody, taken from Hu24 in the Patent CN201580030255) (antibody)
chain 1: QVQLVQSGPEVKKPGASVKVSCKASGYTFTDYAVHWVRQAPGKRLEWIGVISTYNDYTYNNQDFKGRVTMTRDTSASTAYMELSRLRSEDTAVYYCARGNSYFYALDYWGQGTSVTVSS
chain 2: EIVLTQSPATLSLSPGERATLSCRASESVDSYGKSFMHWYQQKPGQAPRLLIYRASNLESGIPARFSGSGSGTDFTLTISSLEPEDFAVYYCQQSNEDPWTFGGGTKLEIK

- binding result [2]: no binding
B2: 64A10HZ (anti-human PTK7 humanized antibody) (antibody, human IgG1, kappa, V domains shown)
VH: QVQLQESGPGLVKPSETLSLTCTVSGFSLTSYGVYWVRQPPGKGPEWLGVIWTSGNTNYNPSLKSRLTISKDNSKNQVSLKLSSVTAADTAVYYCVKHDGGNYVGVMNYWGQGTLVTVSS
VL: EIVMTQSPDFQSVTPKEKVTITCRASQSISDYLHWYQQKPDQSPKLLIKYASQSISGVPSRFSGSGSGSDFTLTINSLEAEDAATYYCQNGHSFPPTFGQGTKLEIKR
notes: Human IgG1 heavy chain constant region and human Kappa light chain constant region; expressed in CHO-S cells

Source: US20260250420A1 (SICHUAN KELUN BIOTECH BIOPHARMACEUTICAL, published 2026)
